Where a chain is given by its changes, count along the chain named. In names and notes the source's numbering stands.
B1: Inhibitor-3 (I3), I3_(1-126) (natural protein, human, UniProt O60927 1-126, looked up)
chain: MAEAGAGLSETVTETTVTVTTEPENRSLTIKLRKRKPEKKVEWTSDTVDNEHMGRRSSKCCCIYEKPRAFGESSTESDEEEEEGCGHTHCVRGHRKGRRRATLGPTPTTPPQPPDPSQPPPGPMQH
notes: 15N-labelled in the NMR experiments, unlabelled in SPR; also called FL I3; PPP1R11; source: E. coli BL21 (DE3), purified (Ni-NTA, TEV, heat 95 °C, SEC); not shown: His6, N-terminal, cleaved; MBP, N-terminal, cleaved
B2: I3_(1-126) C60S/C61S/C62S (natural protein, human, UniProt O60927 1-126, looked up)
chain: B1 chain with C60S, C61S, C62S
notes: also called I3_(1-126) SSS; I3 SSS; source: E. coli BL21 (DE3), purified (Ni-NTA, TEV, heat 95 °C, SEC); not shown: His6, N-terminal, cleaved; MBP, N-terminal, cleaved

How the values were obtained:
[1] = target: PP1alpha 7-330 (Homo sapiens) (UniProt P62136); test: SPR; conditions: cited from earlier work
Chain of PP1alpha 7-330 (Homo sapiens) (P62136 7-330): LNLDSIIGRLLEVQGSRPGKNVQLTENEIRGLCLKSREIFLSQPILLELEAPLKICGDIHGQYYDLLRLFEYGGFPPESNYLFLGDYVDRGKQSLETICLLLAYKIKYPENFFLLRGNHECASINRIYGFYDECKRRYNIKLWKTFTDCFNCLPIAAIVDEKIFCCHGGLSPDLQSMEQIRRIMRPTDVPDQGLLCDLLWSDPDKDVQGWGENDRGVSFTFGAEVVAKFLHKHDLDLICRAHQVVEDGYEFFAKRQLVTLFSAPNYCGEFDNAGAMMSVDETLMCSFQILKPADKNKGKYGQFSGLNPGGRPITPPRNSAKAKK

[2] = target: T1, PP1α_(1-330) (UniProt P62136 1-330); test: NMR titration; 2D [1H,15N] HSQC of 15N-labelled I3_(1-126) free and in complex; loss of cross-peaks on binding; 283 K, 20 mM Bis-Tris pH 6.8, 500 mM NaCl, 0.5 mM TCEP; conditions: both partners purified
T1 construct: Protein phosphatase 1 alpha catalytic subunit (PP1α), residues 1-330; also called Protein Phosphatase 1
T1 sequence (P62136 whole entry, the tested form may be a part): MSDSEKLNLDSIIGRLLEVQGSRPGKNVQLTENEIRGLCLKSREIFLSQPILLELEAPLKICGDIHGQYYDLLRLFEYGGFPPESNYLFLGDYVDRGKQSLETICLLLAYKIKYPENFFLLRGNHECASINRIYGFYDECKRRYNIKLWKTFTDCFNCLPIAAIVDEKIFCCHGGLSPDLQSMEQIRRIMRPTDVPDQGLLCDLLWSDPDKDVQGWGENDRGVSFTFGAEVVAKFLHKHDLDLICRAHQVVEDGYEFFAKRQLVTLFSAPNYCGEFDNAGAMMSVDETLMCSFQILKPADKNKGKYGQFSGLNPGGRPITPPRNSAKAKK

[3] = target: T2, SDS22_(56-360):PP1α_(7-330) complex (UniProt Q15435 56-360; P62136 7-330); test: SPR; His6-PP1 constructs or SDS22_(56-360):PP1α_(7-330) captured on a Ni-NTA chip (NiHC200M), I3 and variants injected; 25 °C; 20 mM Tris pH 8.0, 500 mM NaCl, 0.5 mM TCEP, 0.05% Tween-20; one-to-one one-state or two-state fit; conditions: both partners purified
T2 construct: SDS22 (PPP1R7), residues 56-360; Protein phosphatase 1 alpha catalytic subunit (PP1α), residues 7-330; PP1 in this complex lacks the M1 metal; The same complex treated with EDTA (M2 metal extracted) is kept as this molecule and told apart by assay a4; the His6 tag of SDS22 was cleaved, so it is probably His6-PP1; also called SDS22:PP1; SDS22:PP1_(M2-metal-free) / metal-free …
T2 sequence (Q15435 56-360, chain 1 of 2): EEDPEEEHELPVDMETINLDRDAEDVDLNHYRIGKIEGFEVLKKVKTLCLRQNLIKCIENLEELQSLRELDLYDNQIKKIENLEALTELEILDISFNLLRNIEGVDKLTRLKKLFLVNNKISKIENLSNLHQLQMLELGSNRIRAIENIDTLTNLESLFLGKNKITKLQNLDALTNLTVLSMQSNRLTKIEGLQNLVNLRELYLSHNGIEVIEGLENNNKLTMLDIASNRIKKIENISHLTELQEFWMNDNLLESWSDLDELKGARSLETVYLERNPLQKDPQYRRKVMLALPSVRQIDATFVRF
T2 sequence (P62136 7-330, chain 2 of 2): as the sequence (P62136 7-330) above

| Molecule | Kd [1] | binding result [2] | Kd [3] |
| --- | --- | --- | --- |
| I3 1-126 (from UniProt O60927) | 10 nM | – | – |
| I3 27-68 (from UniProt O60927) | 10 nM | – | – |
| B1 | – | binds | 132 ± 5 nM |
| B2 | – | – | 400 ± 44 nM |

— publication PMC10776994, “The SDS22:PP1:I3 complex: SDS22 binding to PP1 loosens the active site metal to prime metal exchange” (The Journal of Biological Chemistry, 2023)
